Experimental findings from US20260001928A1 (CORTERIA PHARMACEUTICALS, priority 2022, published 2026) are described below.

*1 amine or outer side, *2 acyl side, *3 side chain or, on linkers, in order; H or OH if unused. Where no end group is shown, it is not given here. Side-chain parts run from the residue outwards. [ ]: non-standard residue; d: D form. The star is where a group is joined. C18 diacid = O=C(O)CCCCCCCCCCCCCCCCC(=O)*; C16 diacid = O=C(O)CCCCCCCCCCCCCCC(=O)*; γGlu = O=C(O)[C@H](CCC(=O)[*:2])N[*:1]; Pentanoyl = CCCCC(=O)*; AEEA = NCCOCCOCC(=O)O; Aib = CC(C)(N)C(=O)O; Propionyl = CCC(=O)*; Butyryl = CCCC(=O)*

Assay [1] has as its target T1, CRF1R receptor (UniProt P34998 24-415, limits assumed).
T1 sequence (looked up): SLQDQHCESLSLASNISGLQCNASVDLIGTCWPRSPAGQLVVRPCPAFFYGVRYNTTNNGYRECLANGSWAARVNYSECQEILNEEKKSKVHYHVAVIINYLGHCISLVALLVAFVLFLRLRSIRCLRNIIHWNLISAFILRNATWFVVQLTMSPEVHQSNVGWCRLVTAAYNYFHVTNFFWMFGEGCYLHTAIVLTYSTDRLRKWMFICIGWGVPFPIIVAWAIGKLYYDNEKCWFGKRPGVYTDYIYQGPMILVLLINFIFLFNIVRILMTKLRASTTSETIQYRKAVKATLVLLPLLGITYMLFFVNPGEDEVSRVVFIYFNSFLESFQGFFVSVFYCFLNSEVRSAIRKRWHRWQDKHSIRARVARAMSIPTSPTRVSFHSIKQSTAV
The experiment in a line: cell-based or functional assay.

Assay [2] addresses human corticotropin-releasing factor 2a (CRF2a receptor) (human), Q13324. As to the kind of experiment: cell-based or functional assay.

Chain of human corticotropin-releasing factor 2a (CRF2a receptor) (human), Q13324 (Q13324 20-411): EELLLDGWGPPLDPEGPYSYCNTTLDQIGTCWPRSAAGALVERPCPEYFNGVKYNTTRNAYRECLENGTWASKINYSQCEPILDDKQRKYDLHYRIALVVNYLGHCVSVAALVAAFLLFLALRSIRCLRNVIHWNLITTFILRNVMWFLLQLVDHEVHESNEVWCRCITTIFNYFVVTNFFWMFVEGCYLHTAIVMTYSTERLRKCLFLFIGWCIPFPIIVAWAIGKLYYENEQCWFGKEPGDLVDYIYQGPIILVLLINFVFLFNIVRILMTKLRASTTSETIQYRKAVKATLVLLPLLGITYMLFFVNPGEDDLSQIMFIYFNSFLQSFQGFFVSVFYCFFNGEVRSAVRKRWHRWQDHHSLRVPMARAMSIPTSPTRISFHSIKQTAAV

B1: SEQ ID NO 25 (peptide)
peptide: IVLSLDVPIKLK([AEEA-AEEA-γGlu-γGlu-C18 diacid])Q[Aib]LLKQERQKKQREQAEKN[Aib]QILEQV-NH2
modifications: N-terminus assumed
SMILES: CC[C@H](C)[C@H](N)C(=O)N[C@H](C(=O)N[C@@H](CC(C)C)C(=O)N[C@@H](CO)C(=O)N[C@@H](CC(C)C)C(=O)N[C@@H](CC(=O)O)C(=O)N[C@H](C(=O)N1CCC[C@H]1C(=O)N[C@H](C(=O)N[C@@H](CCCCN)C(=O)N[C@@H](CC(C)C)C(=O)N[C@@H](CCCCNC(=O)COCCOCCNC(=O)COCCOCCNC(=O)CC[C@H](NC(=O)CC[C@H](NC(=O)CCCCCCCCCCCCCCCCC(=O)O)C(=O)O)C(=O)O)C(=O)N[C@@H](CCC(N)=O)C(=O)NC(C)(C)C(=O)N[C@@H](CC(C)C)C(=O)N[C@@H](CC(C)C)C(=O)N[C@@H](CCCCN)C(=O)N[C@@H](CCC(N)=O)C(=O)N[C@@H](CCC(=O)O)C(=O)N[C@@H](CCCNC(=N)N)C(=O)N[C@@H](CCC(N)=O)C(=O)N[C@@H](CCCCN)C(=O)N[C@@H](CCCCN)C(=O)N[C@@H](CCC(N)=O)C(=O)N[C@@H](CCCNC(=N)N)C(=O)N[C@@H](CCC(=O)O)C(=O)N[C@@H](CCC(N)=O)C(=O)N[C@@H](C)C(=O)N[C@@H](CCC(=O)O)C(=O)N[C@@H](CCCCN)C(=O)N[C@@H](CC(N)=O)C(=O)NC(C)(C)C(=O)N[C@@H](CCC(N)=O)C(=O)N[C@H](C(=O)N[C@@H](CC(C)C)C(=O)N[C@@H](CCC(=O)O)C(=O)N[C@@H](CCC(N)=O)C(=O)N[C@H](C(N)=O)C(C)C)[C@@H](C)CC)[C@@H](C)CC)C(C)C)C(C)C
For orientation: EC50 means the concentration needed to bring the measured effect to its halfway point. A high value points to lower potency in that assay. For B1, in assay [1], the concentration for a half-maximal effect (EC50) was > 250 nM and the “Emax (% I)” value amounted to 6%. For the same molecule, the EC50 [nM] (cAMP) in assay [2] came out at 5.02 nM.

B2: SEQ ID NO 95 (peptide)
peptide: Butyryl-VLSLDVPIKLK([AEEA-AEEA-γGlu-C18 diacid])KILLEQEKQKKQREQAETNKQILAQV-NH2
SMILES: CCCC(=O)N[C@H](C(=O)N[C@@H](CC(C)C)C(=O)N[C@@H](CO)C(=O)N[C@@H](CC(C)C)C(=O)N[C@@H](CC(=O)O)C(=O)N[C@H](C(=O)N1CCC[C@H]1C(=O)N[C@H](C(=O)N[C@@H](CCCCN)C(=O)N[C@@H](CC(C)C)C(=O)N[C@@H](CCCCNC(=O)COCCOCCNC(=O)COCCOCCNC(=O)CC[C@H](NC(=O)CCCCCCCCCCCCCCCCC(=O)O)C(=O)O)C(=O)N[C@@H](CCCCN)C(=O)N[C@H](C(=O)N[C@@H](CC(C)C)C(=O)N[C@@H](CC(C)C)C(=O)N[C@@H](CCC(=O)O)C(=O)N[C@@H](CCC(N)=O)C(=O)N[C@@H](CCC(=O)O)C(=O)N[C@@H](CCCCN)C(=O)N[C@@H](CCC(N)=O)C(=O)N[C@@H](CCCCN)C(=O)N[C@@H](CCCCN)C(=O)N[C@@H](CCC(N)=O)C(=O)N[C@@H](CCCNC(=N)N)C(=O)N[C@@H](CCC(=O)O)C(=O)N[C@@H](CCC(N)=O)C(=O)N[C@@H](C)C(=O)N[C@@H](CCC(=O)O)C(=O)N[C@H](C(=O)N[C@@H](CC(N)=O)C(=O)N[C@@H](CCCCN)C(=O)N[C@@H](CCC(N)=O)C(=O)N[C@H](C(=O)N[C@@H](CC(C)C)C(=O)N[C@@H](C)C(=O)N[C@@H](CCC(N)=O)C(=O)N[C@H](C(N)=O)C(C)C)[C@@H](C)CC)[C@@H](C)O)[C@@H](C)CC)[C@@H](C)CC)C(C)C)C(C)C
As to B2, in assay [1], the “Emax (% I)” value is 5%. In addition, the EC50 [nM] (cAMP) in assay [2] came out at 0.76 nM.

B3: SEQ ID NO 94 (peptide)
peptide: Propionyl-VLSLDVPIKLK([AEEA-AEEA-γGlu-C18 diacid])KILLEQEKQKKQREQAETNKQILAQV-NH2
SMILES: CCC(=O)N[C@H](C(=O)N[C@@H](CC(C)C)C(=O)N[C@@H](CO)C(=O)N[C@@H](CC(C)C)C(=O)N[C@@H](CC(=O)O)C(=O)N[C@H](C(=O)N1CCC[C@H]1C(=O)N[C@H](C(=O)N[C@@H](CCCCN)C(=O)N[C@@H](CC(C)C)C(=O)N[C@@H](CCCCNC(=O)COCCOCCNC(=O)COCCOCCNC(=O)CC[C@H](NC(=O)CCCCCCCCCCCCCCCCC(=O)O)C(=O)O)C(=O)N[C@@H](CCCCN)C(=O)N[C@H](C(=O)N[C@@H](CC(C)C)C(=O)N[C@@H](CC(C)C)C(=O)N[C@@H](CCC(=O)O)C(=O)N[C@@H](CCC(N)=O)C(=O)N[C@@H](CCC(=O)O)C(=O)N[C@@H](CCCCN)C(=O)N[C@@H](CCC(N)=O)C(=O)N[C@@H](CCCCN)C(=O)N[C@@H](CCCCN)C(=O)N[C@@H](CCC(N)=O)C(=O)N[C@@H](CCCNC(=N)N)C(=O)N[C@@H](CCC(=O)O)C(=O)N[C@@H](CCC(N)=O)C(=O)N[C@@H](C)C(=O)N[C@@H](CCC(=O)O)C(=O)N[C@H](C(=O)N[C@@H](CC(N)=O)C(=O)N[C@@H](CCCCN)C(=O)N[C@@H](CCC(N)=O)C(=O)N[C@H](C(=O)N[C@@H](CC(C)C)C(=O)N[C@@H](C)C(=O)N[C@@H](CCC(N)=O)C(=O)N[C@H](C(N)=O)C(C)C)[C@@H](C)CC)[C@@H](C)O)[C@@H](C)CC)[C@@H](C)CC)C(C)C)C(C)C
As for B3, the “Emax (% I)” value in assay [1] was found to be 0%. Moreover, in assay [2], the EC50 [nM] (cAMP) was 1.48 nM.

B4: SEQ ID NO 96 (peptide)
peptide: Pentanoyl-VLSLDVPIKLK([AEEA-AEEA-γGlu-C18 diacid])KILLEQEKQKKQREQAETNKQILAQV-NH2
SMILES: CCCCC(=O)N[C@H](C(=O)N[C@@H](CC(C)C)C(=O)N[C@@H](CO)C(=O)N[C@@H](CC(C)C)C(=O)N[C@@H](CC(=O)O)C(=O)N[C@H](C(=O)N1CCC[C@H]1C(=O)N[C@H](C(=O)N[C@@H](CCCCN)C(=O)N[C@@H](CC(C)C)C(=O)N[C@@H](CCCCNC(=O)COCCOCCNC(=O)COCCOCCNC(=O)CC[C@H](NC(=O)CCCCCCCCCCCCCCCCC(=O)O)C(=O)O)C(=O)N[C@@H](CCCCN)C(=O)N[C@H](C(=O)N[C@@H](CC(C)C)C(=O)N[C@@H](CC(C)C)C(=O)N[C@@H](CCC(=O)O)C(=O)N[C@@H](CCC(N)=O)C(=O)N[C@@H](CCC(=O)O)C(=O)N[C@@H](CCCCN)C(=O)N[C@@H](CCC(N)=O)C(=O)N[C@@H](CCCCN)C(=O)N[C@@H](CCCCN)C(=O)N[C@@H](CCC(N)=O)C(=O)N[C@@H](CCCNC(=N)N)C(=O)N[C@@H](CCC(=O)O)C(=O)N[C@@H](CCC(N)=O)C(=O)N[C@@H](C)C(=O)N[C@@H](CCC(=O)O)C(=O)N[C@H](C(=O)N[C@@H](CC(N)=O)C(=O)N[C@@H](CCCCN)C(=O)N[C@@H](CCC(N)=O)C(=O)N[C@H](C(=O)N[C@@H](CC(C)C)C(=O)N[C@@H](C)C(=O)N[C@@H](CCC(N)=O)C(=O)N[C@H](C(N)=O)C(C)C)[C@@H](C)CC)[C@@H](C)O)[C@@H](C)CC)[C@@H](C)CC)C(C)C)C(C)C
For B4, the “Emax (% I)” value in assay [1] amounted to 4%. Moreover, the EC50 [nM] (cAMP) in assay [2] came out at 0.49 nM.

B5: SEQ ID NO 93 (peptide)
peptide: VLSLD[dV]PIKLK([AEEA-AEEA-γGlu-C18 diacid])KILLEQEKQKKQREQAETNKQILAQV-NH2
modifications: N-terminus assumed
SMILES: CC[C@H](C)[C@H](NC(=O)[C@H](CCC(N)=O)NC(=O)[C@H](CCCCN)NC(=O)[C@H](CC(N)=O)NC(=O)[C@@H](NC(=O)[C@H](CCC(=O)O)NC(=O)[C@H](C)NC(=O)[C@H](CCC(N)=O)NC(=O)[C@H](CCC(=O)O)NC(=O)[C@H](CCCNC(=N)N)NC(=O)[C@H](CCC(N)=O)NC(=O)[C@H](CCCCN)NC(=O)[C@H](CCCCN)NC(=O)[C@H](CCC(N)=O)NC(=O)[C@H](CCCCN)NC(=O)[C@H](CCC(=O)O)NC(=O)[C@H](CCC(N)=O)NC(=O)[C@H](CCC(=O)O)NC(=O)[C@H](CC(C)C)NC(=O)[C@H](CC(C)C)NC(=O)[C@@H](NC(=O)[C@H](CCCCN)NC(=O)[C@H](CCCCNC(=O)COCCOCCNC(=O)COCCOCCNC(=O)CC[C@H](NC(=O)CCCCCCCCCCCCCCCCC(=O)O)C(=O)O)NC(=O)[C@H](CC(C)C)NC(=O)[C@H](CCCCN)NC(=O)[C@@H](NC(=O)[C@@H]1CCCN1C(=O)[C@H](NC(=O)[C@H](CC(=O)O)NC(=O)[C@H](CC(C)C)NC(=O)[C@H](CO)NC(=O)[C@H](CC(C)C)NC(=O)[C@@H](N)C(C)C)C(C)C)[C@@H](C)CC)[C@@H](C)CC)[C@@H](C)O)C(=O)N[C@@H](CC(C)C)C(=O)N[C@@H](C)C(=O)N[C@@H](CCC(N)=O)C(=O)N[C@H](C(N)=O)C(C)C
Regarding B5, the “Emax (% I)” value in assay [1] is 6%. The molecule also displayed an EC50 [nM] (cAMP) in assay [2] of 5.08 nM.

B6: SEQ ID NO 33 (peptide)
peptide: Ac-VLSLD[dV]PIKLK([γGlu-C16 diacid])KILLEQEKQKKQREQAETNKQILAQV-NH2
SMILES: CC[C@H](C)[C@H](NC(=O)[C@H](CCC(N)=O)NC(=O)[C@H](CCCCN)NC(=O)[C@H](CC(N)=O)NC(=O)[C@@H](NC(=O)[C@H](CCC(=O)O)NC(=O)[C@H](C)NC(=O)[C@H](CCC(N)=O)NC(=O)[C@H](CCC(=O)O)NC(=O)[C@H](CCCNC(=N)N)NC(=O)[C@H](CCC(N)=O)NC(=O)[C@H](CCCCN)NC(=O)[C@H](CCCCN)NC(=O)[C@H](CCC(N)=O)NC(=O)[C@H](CCCCN)NC(=O)[C@H](CCC(=O)O)NC(=O)[C@H](CCC(N)=O)NC(=O)[C@H](CCC(=O)O)NC(=O)[C@H](CC(C)C)NC(=O)[C@H](CC(C)C)NC(=O)[C@@H](NC(=O)[C@H](CCCCN)NC(=O)[C@H](CCCCNC(=O)CC[C@H](NC(=O)CCCCCCCCCCCCCCC(=O)O)C(=O)O)NC(=O)[C@H](CC(C)C)NC(=O)[C@H](CCCCN)NC(=O)[C@@H](NC(=O)[C@@H]1CCCN1C(=O)[C@H](NC(=O)[C@H](CC(=O)O)NC(=O)[C@H](CC(C)C)NC(=O)[C@H](CO)NC(=O)[C@H](CC(C)C)NC(=O)[C@@H](NC(C)=O)C(C)C)C(C)C)[C@@H](C)CC)[C@@H](C)CC)[C@@H](C)O)C(=O)N[C@@H](CC(C)C)C(=O)N[C@@H](C)C(=O)N[C@@H](CCC(N)=O)C(=O)N[C@H](C(N)=O)C(C)C
Take B6: in assay [1], the “Emax (% I)” value worked out at 13%. The molecule also returned an EC50 [nM] (cAMP) in assay [2] of 0.47 nM.
